Experimental data from paper PMC10881965, “Structural optimization of siRNA conjugates for albumin binding achieves effective MCL1-directed cancer therapy”.

Biological target: human serum albumin (Homo sapiens, UniProt P02768 25-609)
Assay: BLI; EMSA: 0.1 nmol siRNA conjugate, 5x molar excess albumin, 30 min at 37 C, 4-20% TGX gel; BLI: albumin 400 nM (or varied), buffer not in material

Chain of human serum albumin (P02768 25-609): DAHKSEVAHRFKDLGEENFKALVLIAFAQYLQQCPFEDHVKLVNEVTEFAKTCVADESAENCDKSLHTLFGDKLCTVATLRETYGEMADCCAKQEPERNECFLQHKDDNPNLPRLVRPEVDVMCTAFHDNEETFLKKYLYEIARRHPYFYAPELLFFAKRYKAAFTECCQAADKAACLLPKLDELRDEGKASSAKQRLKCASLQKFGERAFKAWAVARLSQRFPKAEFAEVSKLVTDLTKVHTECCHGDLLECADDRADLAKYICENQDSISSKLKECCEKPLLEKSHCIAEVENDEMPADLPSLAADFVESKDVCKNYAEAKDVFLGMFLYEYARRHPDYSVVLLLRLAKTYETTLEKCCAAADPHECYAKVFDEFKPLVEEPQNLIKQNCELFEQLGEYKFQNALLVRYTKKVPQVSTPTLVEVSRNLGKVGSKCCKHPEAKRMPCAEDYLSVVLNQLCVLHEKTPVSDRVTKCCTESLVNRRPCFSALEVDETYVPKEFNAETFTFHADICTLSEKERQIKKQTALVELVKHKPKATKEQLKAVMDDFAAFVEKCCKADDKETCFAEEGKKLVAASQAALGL

B1: si<(EG30L)2 (dsRNA)
RNA 1: CAAUUGCACUGAUAAUGAA
RNA 2: UUCAUUAUCAGUGCAAUUG
modifications: 2'-F/2'-OMe, PS; 5' sense divalent stearyl, 30 EG per arm
**Q.** Which Kd does the source give for B1 here?
**A.** The Kd was 9.49 ± 0.1 nM.

B2: si<(EG18L)2 (dsRNA)
RNA 1: CAAUUGCACUGAUAAUGAA
RNA 2: UUCAUUAUCAGUGCAAUUG
modifications: 2'-F/2'-OMe, PS; 5' sense divalent stearyl, 18 EG per arm, proximal branch
**Q.** For B2, which Kd is on record?
**A.** Its Kd is 30 ± 0.3 nM.
